Assay results reported in doi:10.1101/2022.12.13.520362 (bioRxiv, 2022).
Numbering of substitutions follows the chain as printed. Numbers in names are those of the source.

B1: his6-tagged WT scaffolding protein of bacteriophage P22 (gp8) (natural protein, UniProt P26748 1-303, looked up)
chain: MEPTTEIQATEDLTLSGDHAAASADSLVVDNANDNAGQEEGFEIVLKDDETAPKQDPAKNAEFARRRIERKRQRELEQQMEAVKRGELPESLRVNPDLPPQPDINAYLSEEGLAKYDYDNSRALAAFNAANTEWLMKAQDARSNAVAEQGRKTQEFTQQSAQYVEAARKHYDAAEKLNIPDYQEKEDAFMQLVPPAVGADIMRLFPEKSAALMYHLGANPEKARQLLAMDGQSALIELTRLSERLTLKPRGKQISSAPPADQPITGDVSAANKDAIRKQMDAAASKGDVETYRKLKAKLKGIR
B2: his6-tagged L245C scaffolding protein of bacteriophage P22 (natural protein, UniProt P26748 1-303, looked up)
chain: B1 chain with L245C

What was measured:
[1] = target: bacteriophage P22 coat protein monomers (WT) (bacteriophage P22, UniProt P26747 1-430); experiment: weak affinity chromatography
[2] = target: empty procapsid shells of bacteriophage P22 (WT coat protein) (bacteriophage P22, UniProt P26747 1-430); experiment: co-sedimentation

Row | Binder | binding result [1] | binding result [2]
1 | B1 | binds | binds
2 | B2 | – | binds
